Tests used:
[1] = molecular target: FKBP×3-VP16 fusion protein (human; Herpes Simplex Virus) (UniProt P62942); test: cell-based or functional assay
[2] = molecular target: FKBP×3-p65 fusion protein (human) (UniProt P62942); test: cell-based or functional assay

**Q.** With “ZFHD1-FKBP×3 fusion protein (from UniProt P08046 333-390; P14859 378-439; P62942 2-108; P62942 2-108; P62942 2-108)” as the substance, how does the FK1012 concentration at peak SEAP activation [1] read?
**A.** 100 nM

**Q.** And the FK1012 concentration at peak SEAP activation [2]?
**A.** 100 nM

— US20070150973A1
